Assay results taken from patent US20260035459A1 (AVA LIFESCIENCE, published 2026).
Changes are numbered by the printed parent chain.

B1: humanized anti-IGLV3-21^R110 antibody HC6-LC6 (antibody, human IgG1, V domains shown)
VH: QVQLQESGPGLVKPSETLSLTCTVSGFSLTSYGIHWIRQSPGRGLEWIGVIWRGGGTDSNAAFMSRVTISVDTSKSQVSLKLGSVTAADTAIYYCARSRYDEEESMNYWGQGTSVTVSS
VL: EIVLTQSPSSLSASVGDSVTITCRASGNIHSYLAWYQQKPGKAPKLLIYNAKTLADGVPSRFSGSGSGTQYTLTISSLQPEDFATYYCQHFWNTPPTFGAGTKLELK
notes: VH fused to a human IgG1 constant domain and VL to a human Ig kappa constant domain; Expressed in CHO cells
B2: humanized anti-IGLV3-21^R110 antibody HC6-LC8 (antibody, human IgG1, V domains shown)
VH: B1 VH
VL: EIVLTQSPATLSLSPGERATLSCRASGNIHSYLAWYQQKPGQAPRLLIYNAKTLADGIPARFSGSGSGTDYTLTISSLEPEDFASYYCQHFWNTPPTFGAGTKLELK
notes: Expressed in CHO cells
B3: humanized anti-IGLV3-21^R110 antibody HC7-LC7 (antibody, human IgG1, V domains shown)
VH: B1 VH with V67I, V71R, S76T
VL: B1 VL with E1Q, V3Q, S10F, K45Q, Q70E
notes: Expressed in CHO cells
B4: humanized anti-IGLV3-21^R110 antibody HC6-LC7 (antibody, human IgG1, V domains shown)
VH: B1 VH
VL: B1 VL with E1Q, V3Q, S10F, K45Q, Q70E
notes: Expressed in CHO cells
B5: humanized anti-IGLV3-21^R110 antibody HC7-LC8 (antibody, human IgG1, V domains shown)
VH: B1 VH with V67I, V71R, S76T
VL: B2 VL
notes: Expressed in CHO cells
B6: humanized anti-IGLV3-21^R110 antibody HC7-LC9 (antibody, human IgG1, V domains shown)
VH: B1 VH with V67I, V71R, S76T
VL: B2 VL with A9G, A60D, S77R, S85V
notes: Expressed in CHO cells
B7: humanized anti-IGLV3-21^R110 antibody HC7-LC6 (antibody, human IgG1, V domains shown)
VH: B1 VH with V67I, V71R, S76T
VL: B1 VL
notes: Expressed in CHO cells
B8: humanized anti-IGLV3-21^R110 antibody HC6-LC9 (antibody, human IgG1, V domains shown)
VH: B1 VH
VL: B2 VL with A9G, A60D, S77R, S85V
notes: Expressed in CHO cells

The binders below were run against T1, soluble recombinant IGLV3-21^R110-harboring B-cell receptor, monomeric human IgM (170.5 kDa) (human) (assay: BLI (Fortebio Octet), antibody captured by anti-human IgG Fc, soluble BCR (monomeric IgM) as analyte, 1:1 model).
T1 construct: Made in 293-HEK cells by transient expression and used as the analyte in BLI; also called soluble IGLV3-21^R110 B-cell receptor; soluble form of the IGLV3-21^R110 BCR
T1 sequence (heavy, as listed by the source limits assumed, chain 1 of 2): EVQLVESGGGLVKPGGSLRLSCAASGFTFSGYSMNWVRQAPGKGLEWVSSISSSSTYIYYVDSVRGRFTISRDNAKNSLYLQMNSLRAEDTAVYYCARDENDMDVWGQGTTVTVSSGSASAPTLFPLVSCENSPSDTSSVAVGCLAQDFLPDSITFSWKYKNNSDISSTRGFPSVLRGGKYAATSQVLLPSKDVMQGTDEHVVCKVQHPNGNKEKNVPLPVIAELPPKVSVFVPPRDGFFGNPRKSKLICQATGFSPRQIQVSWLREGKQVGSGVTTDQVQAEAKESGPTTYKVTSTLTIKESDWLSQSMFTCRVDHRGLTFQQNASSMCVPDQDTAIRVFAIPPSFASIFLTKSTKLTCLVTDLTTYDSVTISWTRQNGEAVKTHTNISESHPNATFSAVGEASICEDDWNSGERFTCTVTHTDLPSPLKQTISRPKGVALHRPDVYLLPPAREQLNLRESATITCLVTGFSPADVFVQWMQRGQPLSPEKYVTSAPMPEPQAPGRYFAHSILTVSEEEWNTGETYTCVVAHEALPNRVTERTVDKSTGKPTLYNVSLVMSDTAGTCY
T1 sequence (light, as listed by the source limits assumed, chain 2 of 2): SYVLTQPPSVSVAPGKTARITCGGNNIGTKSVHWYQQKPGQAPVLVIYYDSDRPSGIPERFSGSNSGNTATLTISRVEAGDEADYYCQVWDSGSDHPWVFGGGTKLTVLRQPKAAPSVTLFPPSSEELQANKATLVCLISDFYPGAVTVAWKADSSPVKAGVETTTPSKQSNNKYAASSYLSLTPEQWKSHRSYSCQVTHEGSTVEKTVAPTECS
Text: In brief, to define the binding affinities of the antibodies to the IGLV3-21^R110-harboring B-cell receptor, a soluble recombinant version of the BCR (170.5 kDa; sequence according to SEQ ID NO: 52 for HC and 53 for LC) was produced in 293-HEK cell line as monomeric human IgM by transient expression using a protocol described in section 1.1 of this Example, and binding to immobilized anti-IGLV3-21^R110 antibodies was monitored by Bio-Layer Interferometry (BLI) on a Fortebio Octet instrument (Satorius). Kinetic assays were performed by first immobilizing the humanized anti IGLV3-21R110 antibodies onto biosensors through an indirect capturing reagent, anti-human lgG Fc antibody. Anti IGLV3-21^R110 antibodies were loaded at a concentration of 0.01875 μg/ml to generate an anti IGLV3-21^R110 antibody capture level of between 0.30 and 0.34 nm. A 9 nM BCR-fragment solution in running buffer (PBS, 0.02% Tween20, 0.1% BSA, 0.05% sodium acide) was prepared and serial diluted 1:3 to obtain 7 concentrations from 9 to 0.012 nM (9 nM, 3 nM, 1 nM, 0.333 nM, 0.111 nM, 0.037 nM, and 0.012 nM). The anti IGLV3-21 R110 antibody capture biosensors were then submerged in wells containing the different concentrations of the soluble BCR-fragment for 900 seconds (association stage) followed by a dissociation step of 1200 seconds in running buffer. Steps were performed at a constant shake speed of 1000 rpm. All reagents were used as described by the manufacturer. Sensorgrams were generated after double reference correction (buffer and blank sensors) to compensate for both the natural dissociation of the capture anti IGLV3-21^R110 antibody and also non-specific binding of the soluble BCR-fragment to the sensor surface. […] (KD) were calculated based on the ratio of association (ka) and dissociation rate (kd) constants, obtained by fitting sensorgrams with a first order 1:1 binding model using the Fortebio Data Analysis software (Satorius).
B1 showed a Kd of 0.211 nM.
Binder B2 has a Kd of 0.277 nM.
B3 showed a Kd of 0.269 nM.
Work on B4 yielded a Kd of 0.347 nM.
Work on B5 yielded a Kd of 0.249 nM.
For B6, the Kd was 0.313 nM.
With B7 the Kd was 0.175 nM.
In the case of B8, the Kd is reported as 0.291 nM.
